A word on the stoichiometry N: it is the number of molecules, sites or subunits per partner or assembly.

Results on three molecules are retold here after paper PMC3329130 (Biochemistry, 2012).

In data set [1] the target is yeast Sac1 phosphatase domain (amino acids 1-511) (yeast) (UniProt P32368). Description: AUC.
Data set [2] deals with T1, Sac1 (phosphatase domain of yeast Sac1, residues 1-511) (Saccharomyces cerevisiae, UniProt P32368).
T1 sequence (P32368 1-511): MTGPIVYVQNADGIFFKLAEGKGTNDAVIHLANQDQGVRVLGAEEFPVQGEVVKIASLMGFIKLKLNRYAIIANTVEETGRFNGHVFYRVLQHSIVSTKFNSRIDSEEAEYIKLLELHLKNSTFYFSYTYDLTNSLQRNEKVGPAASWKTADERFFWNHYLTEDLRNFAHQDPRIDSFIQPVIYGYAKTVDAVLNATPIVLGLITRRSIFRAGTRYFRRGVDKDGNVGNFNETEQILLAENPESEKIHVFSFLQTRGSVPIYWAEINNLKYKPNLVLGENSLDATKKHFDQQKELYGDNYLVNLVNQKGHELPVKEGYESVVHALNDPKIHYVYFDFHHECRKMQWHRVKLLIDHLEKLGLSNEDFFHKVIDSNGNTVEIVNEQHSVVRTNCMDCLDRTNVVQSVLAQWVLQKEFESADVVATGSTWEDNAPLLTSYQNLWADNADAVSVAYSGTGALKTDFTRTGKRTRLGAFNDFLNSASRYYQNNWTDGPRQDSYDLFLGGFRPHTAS
Description: malachite green phosphate release, PI. The conditions noted are these: fixed PI(4)P, pH 6.8, room temperature; allosteric activator. The data set is classed as biochemical.

Substrate in the data set “purified protein”: CCCCCCCC(=O)OC[C@H](COP(=O)(O)O[C@H]1[C@H](O)[C@@H](O)[C@H](OP(=O)(O)O)[C@@H](O)[C@H]1O)OC(=O)CCCCCCC
The experiment in a line: purified protein. The conditions noted are these: no activator; sigmoidal, Hill coefficient 3.6 ± 0.3; buffer as for wild type.

Numbering of substitutions follows the chain as printed. Names may count otherwise.

In data set [1], “yeast Sac1 phosphatase domain (amino acids 1-511) (from UniProt P32368 1-511) (domain or fragment)” yielded a percent of the protein in the dimeric form of 20% and a stoichiometry N of 2.

In the case of `CCCCCCCC(=O)OC[C@H](COP(=O)(O)OC[C@H](N)C(=O)O)OC(=O)CCCCCCC` [diC8 PS], the activation entry in data set [2] is “Sac1 is strongly activated by phosphatidylserine (PS)”.

B1: Sac1 (phosphatase domain of yeast Sac1, residues 1-511) (Saccharomyces cerevisiae S288C; R207Q) (protein)
chain: T1 sequence (P32368 1-511) with R207Q
Regarding B1, in “purified protein”, the K0.5 worked out at 46 ± 5 µM.
